pKd: −log10 of the molar value.
Experiments:
histone H3 (human) = histone H3 (human) (UniProt P68431); assay: SPR kinetic assay, ligand H3 captured on the chip, analyte prothrombin fragment 1 at 1.0-6.0 µM
histone H4 (human) = histone H4 (human) (UniProt P62805); assay: SPR kinetic assay, ligand H4 captured on the chip, analyte prothrombin fragment 1 at 1.0-6.0 µM

pKd (histone H3 (human)): 5.63
pKd (histone H4 (human)): 6.05
Substance: recombinant human prothrombin fragment 1 (from UniProt P00734 44-198)

From patent US20210024596A1
